Experimental data from paper PMC12310515.

Target: RBK21 variable region (residues 148-299) (P. falciparum (field isolate Lek174))
Test: SPR

Chain of KIR2DS1 (SPR protein) (Q14954 22-245): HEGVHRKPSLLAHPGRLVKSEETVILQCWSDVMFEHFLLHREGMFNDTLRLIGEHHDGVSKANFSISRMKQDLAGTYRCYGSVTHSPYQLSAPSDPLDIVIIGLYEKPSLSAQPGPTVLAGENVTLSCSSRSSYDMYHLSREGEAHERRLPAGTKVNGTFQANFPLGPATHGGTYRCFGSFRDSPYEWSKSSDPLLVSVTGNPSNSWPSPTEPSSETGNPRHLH
Chain of KIR2DL1 (residues 27-221) (P43626 27-221): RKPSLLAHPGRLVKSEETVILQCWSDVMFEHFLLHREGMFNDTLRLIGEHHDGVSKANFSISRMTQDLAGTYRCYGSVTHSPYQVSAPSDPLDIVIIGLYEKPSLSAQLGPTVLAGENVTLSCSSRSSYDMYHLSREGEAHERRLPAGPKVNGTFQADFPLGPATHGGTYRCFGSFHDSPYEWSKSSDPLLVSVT

KIR2DL1 (residues 27-221) (from UniProt P43626 27-221) (domain or fragment)
Kd: 0.5 µM

KIR2DS1 (SPR protein) (from UniProt Q14954) (receptor)
Kd: 1.7 µM
